Measured values published in publication PMC4388618.

Substrate: [H][C@@]12COP(=O)(O)O[C@@]1([H])[C@@H](O)[C@H](n1cnc3c(=O)[nH]c(N)nc31)O2
Assay: cyclic nucleotide phosphodiesterase assay kit
Assay type: biochemical, Drosophila melanogaster

B1: Prune (Pn) (Drosophila melanogaster) (protein)
chain: MCFLRFLAQARGTLGRHLAEASPVAWAAAPDVSGRKLHLVMGNESCDLDSAVSAVTLAFVYAQRHREHDYVPILNIPRRDYPLKTEVGHLFVKCGIAEPVLLFRDDIPREVVQDVNVILVDHHVSPLAPNVTEILDHRPLEDSSPSFKQLPTLCQLDIDASVGSCATLVAQRYLAEDQPRSTSVAQLLHATIVLDTINFAPAAKRYGPKDEAMVQKLESELNRKDAQRSSLFDELVAARADISKLTLTEVLRKDMKVLQTDRQVVPLAGMPILVRDFVEKSGAEKAVREFGVESNLLVILGMYVSPADGQVQRDLALISLSGQGQFVQRVQQALMESNDPKLELRPHEVDTRFMGGCFLRQHNVQATRKHILPIVKRALLEWEADHACDCDEVYFFKEKPQLGLS
Km: 17.97 ± 10.78 µM
kcat: 0.00123 ± 0.00014 s⁻¹
